Test results: patent publication US12662541B2, “Antibody-drug conjugates against the receptor tyrosine kinase EphA5” (Rutgers, The State University of New Jersey, priority 2021, dated 2026)
Changes are numbered by the printed parent chain.

B1: VH2/VK3: humanized anti-EphA5 antibody, VH SEQ ID NO:3, VL SEQ ID NO:11 (antibody, V domains shown)
VH: EVTLVESGGGLVQPGGSLKLSCAASGFTFSTFGIHWVRQAPGKGLEWVAYISGASTTIYYADTVKGRFTISRDNSKNTLYLQMNSLRSEDTAMYYCARYGTSFPYGLDYWGQGTLVTVSS
VL: DIVMTQSPDSLAVSLGERATINCKASQSVDYDGDSYMNWYQQKPGKAPKLLIYGASNLESGIPDRFSGSGSGTDFTLTISRLEPEDAAVYYCQQSNEDPFTFGQGTKLEIK
B2: VH5/VK1: humanized anti-EphA5 antibody, VH SEQ ID NO:6, VL SEQ ID NO:9 (antibody, V domains shown)
VH: B1 VH with T3Q, T63S, S88A, M93V
VL: B1 VL with D9G, P84E, V89S
B3: VH6/VK4: humanized anti-EphA5 antibody, VH SEQ ID NO:7, VL SEQ ID NO:12 (antibody, V domains shown)
VH: B1 VH with T3Q, Y50S, T63S, S88A, M93V
VL: B1 VL with A25S, V89S
B4: VH5/VK5: humanized anti-EphA5 antibody, VH SEQ ID NO:6, VL SEQ ID NO:13 (antibody, V domains shown)
VH: B1 VH with T3Q, T63S, S88A, M93V
VL: B1 VL with A25S
B5: VH4/VK5: humanized anti-EphA5 antibody, VH SEQ ID NO:5, VL SEQ ID NO:13 (antibody, V domains shown)
VH: B1 VH with T3Q, S88A, M93V
VL: B1 VL with A25S
B6: VH6/VK3: humanized anti-EphA5 antibody, VH SEQ ID NO:7, VL SEQ ID NO:11 (antibody, V domains shown)
VH: B1 VH with T3Q, Y50S, T63S, S88A, M93V
VL: B1 VL
B7: VH6/VK5: humanized anti-EphA5 antibody, VH SEQ ID NO:7, VL SEQ ID NO:13 (antibody, V domains shown)
VH: B1 VH with T3Q, Y50S, T63S, S88A, M93V
VL: B1 VL with A25S
B8: VH4/VK1: humanized anti-EphA5 antibody, VH SEQ ID NO:5, VL SEQ ID NO:9 (antibody, V domains shown)
VH: B1 VH with T3Q, S88A, M93V
VL: B1 VL with D9G, P84E, V89S
B9: VH4/VK2: humanized anti-EphA5 antibody, VH SEQ ID NO:5, VL SEQ ID NO:10 (antibody, V domains shown)
VH: B1 VH with T3Q, S88A, M93V
VL: B1 VL with V89S
B10: VH6/VK2: humanized anti-EphA5 antibody, VH SEQ ID NO:7, VL SEQ ID NO:10 (antibody, V domains shown)
VH: B1 VH with T3Q, Y50S, T63S, S88A, M93V
VL: B1 VL with V89S
B11: VH6/VK1: humanized anti-EphA5 antibody, VH SEQ ID NO:7, VL SEQ ID NO:9 (antibody, V domains shown)
VH: B1 VH with T3Q, Y50S, T63S, S88A, M93V
VL: B1 VL with D9G, P84E, V89S

Molecular target: T1, rhEphA5 antigen (Homo sapiens, UniProt P54756)
T1 construct: purchased R and D systems 3036-A5
Assay: kd (1/s)
Protocol: (§1) Table printed on a drawing sheet, FIG. 13
Head of the field: kd (1/s)
(§2) The patent's description of the figure: FIG. 13 is a table illustrating the single cycle kinetic parameters of chimeric (VH0/VK0) and humanized 11C12 variants (tested as cell culture supernatants) binding to rhEphA5 antigen as determined using the Biacore T200. The relative KD was calculated by dividing the KD of the humanized variant by that of the VH0/VK0 (top row) assayed in the same experiment. The variants marked with ‘*’ have KD values that are within two-fold of, or are better than, the chimeric antibody. The chimeric and selected variants marked in ‘#’ were identified as the main leads for purification. […]
(§3) Where the first naming reader finds the target: description_of_the_figure: humanized 11C12 variants (tested as cell culture supernatants) binding to rhEphA5 antigen as determined using the Biacore T200

| kd | Molecule |
| --- | --- |
| 0.00132 s⁻¹ | B1 |
| 0.00127 s⁻¹ | B2 |
| 0.209 s⁻¹ | B3 |
| 0.0014 s⁻¹ | B4 |
| 0.00137 s⁻¹ | B5 |
| 0.341 s⁻¹ | B6 |
| 0.285 s⁻¹ | B7 |
| 0.00129 s⁻¹ | B8 |
| 0.00114 s⁻¹ | B9 |

Molecular target: T1, rhEphA5 antigen
Assay: ka (1/Ms)
Protocol: as §1
Head of the field: ka (1/Ms)
as §2, §3

| ka | Molecule |
| --- | --- |
| 1.74e-09 M⁻¹ s⁻¹ | B10 |
| 1.37e-06 M⁻¹ s⁻¹ | B4 |
| 1.37e-06 M⁻¹ s⁻¹ | B5 |
| 5.22e-09 M⁻¹ s⁻¹ | B6 |
| 1.65e-09 M⁻¹ s⁻¹ | B11 |

Molecular target: T1, rhEphA5 antigen
Assay: KD (M)
Protocol: as §1
Head of the field: KD (M)
as §2, §3

| Kd | Molecule |
| --- | --- |
| 0.985 nM | B1 |
